Source: patent US20160031999A1 (CSL, published 2016)

Key:
[1] = molecular target: T1, human IL-11Rα on transfected cells (human, UniProt Q14626 23-422); assay: cell-based or functional assay
T1 sequence: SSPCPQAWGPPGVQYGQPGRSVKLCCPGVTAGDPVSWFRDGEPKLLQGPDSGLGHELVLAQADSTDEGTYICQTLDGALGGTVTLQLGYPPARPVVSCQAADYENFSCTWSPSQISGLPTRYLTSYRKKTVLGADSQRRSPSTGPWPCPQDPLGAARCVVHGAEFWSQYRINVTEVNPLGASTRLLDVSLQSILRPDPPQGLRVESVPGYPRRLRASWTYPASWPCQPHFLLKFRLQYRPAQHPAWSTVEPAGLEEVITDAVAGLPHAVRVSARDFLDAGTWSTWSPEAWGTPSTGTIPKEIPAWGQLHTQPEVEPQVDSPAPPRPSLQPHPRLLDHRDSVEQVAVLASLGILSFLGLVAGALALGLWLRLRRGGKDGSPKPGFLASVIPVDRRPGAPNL

[2] = molecular target: T2, human IL-11Rα (form used in the assay not stated) (human, UniProt Q14626 23-363, limits assumed); assay: Biacore, pH 8.5, 37°C
T2 construct: also called hIL-11R; hIL-11Rα
T2 sequence: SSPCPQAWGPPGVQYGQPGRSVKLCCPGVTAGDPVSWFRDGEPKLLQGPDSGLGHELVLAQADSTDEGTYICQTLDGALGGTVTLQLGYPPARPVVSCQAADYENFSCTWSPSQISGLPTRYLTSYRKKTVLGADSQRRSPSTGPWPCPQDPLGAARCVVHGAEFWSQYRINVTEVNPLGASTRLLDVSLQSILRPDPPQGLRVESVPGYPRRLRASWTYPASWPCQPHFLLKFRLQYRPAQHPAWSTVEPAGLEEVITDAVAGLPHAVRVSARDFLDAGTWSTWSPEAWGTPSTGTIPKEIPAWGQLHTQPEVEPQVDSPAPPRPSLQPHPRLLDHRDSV

| Binder | Fold increase in potency relative to 8E2 [1] | IC50 [1] | Kd [2] |
| --- | --- | --- | --- |
| hu8E2-TS-14 (antibody, V domains shown) VH: EVQLLESGGGLVQPGGSLRLSCAASGFTFSWYSMTWVRQAPGKGLEWVSSIVPSGGHTQYADSVKGRFTISRDNSKNTLYLQMNSLRAEDTAVYYCAKGPGWGSFDLWGRGTLVTVSS VL: DIQMTQSPSSLSASVGDRVTITCQASQDINNYLNWYQQKPGKAPKLLIYDASNLQTGVPSRFSGSGSGTDFTFTISSLQPEDIATYYCQQHDNQSPTFGPGTKVDIK | 1.6 fold | 0.52 µg/mL | 342 pM |
| hu8E2-TS-4 (antibody, V domains shown) VH: EVQLLESGGGLVQPGGSLRLSCAASGFTFSWYSMTWVRQAPGKGLEWVSSIVPSGGHTQYADSVKGRFTISRDNSKNTLYLQMNSLRAEDTAVYYCAKGPGWGSFDLWGRGTLVTVSS VL: DIQMTQSPSSLSASVGDRVTITCQASQDINNYLNWYQQKPGKAPKLLIYDASNLQTGVPSRFSGSGSGTDFTFTISSLQPEDIATYYCQQHEFQSPTFGPGTKVDIK | 6.6 fold | 0.31 µg/mL | 295 pM |
| hu8E2-TS-9 (antibody, V domains shown) VH: EVQLLESGGGLVQPGGSLRLSCAASGFTFSWYSMTWVRQAPGKGLEWVSSIVPSGGHTQYADSVKGRFTISRDNSKNTLYLQMNSLRAEDTAVYYCAKGPGWGSFDLWGRGTLVTVSS VL: DIQMTQSPSSLSASVGDRVTITCQASQDINNYLNWYQQKPGKAPKLLIYDASNLQTGVPSRFSGSGSGTDFTFTISSLQPEDIATYYCQQAEEQSPTFGPGTKVDIK | 3.1 fold | 0.68 µg/mL | 2290 pM |
| hu8E2-TS-17 (antibody, V domains shown) VH: EVQLLESGGGLVQPGGSLRLSCAASGFTFSWYSMTWVRQAPGKGLEWVSSIVPSGGHTQYADSVKGRFTISRDNSKNTLYLQMNSLRAEDTAVYYCAKGPGWGSFDLWGRGTLVTVSS VL: DIQMTQSPSSLSASVGDRVTITCQASQDINNYLNWYQQKPGKAPKLLIYDASNLQTGVPSRFSGSGSGTDFTFTISSLQPEDIATYYCSQFESQSPTFGPGTKVDIK | 2.3 fold | 0.35 µg/mL | 390 pM |
| hu8E2-TS-6 (antibody, V domains shown) VH: EVQLLESGGGLVQPGGSLRLSCAASGFTFSWYSMTWVRQAPGKGLEWVSSIVPSGGHTQYADSVKGRFTISRDNSKNTLYLQMNSLRAEDTAVYYCAKGPGWGSFDLWGRGTLVTVSS VL: DIQMTQSPSSLSASVGDRVTITCQASQDINNYLNWYQQKPGKAPKLLIYDASNLQTGVPSRFSGSGSGTDFTFTISSLQPEDIATYYCEQFESQSPTFGPGTKVDIK | 1.4 fold | 0.41 µg/mL | 289 pM |
| hu8E2-TS-2 (antibody, V domains shown) VH: EVQLLESGGGLVQPGGSLRLSCAASGFTFSWYSMTWVRQAPGKGLEWVSSIVPSGGHTQYADSVKGRFTISRDNSKNTLYLQMNSLRAEDTAVYYCAKGPGWGSFDLWGRGTLVTVSS VL: DIQMTQSPSSLSASVGDRVTITCQASQDINNYLNWYQQKPGKAPKLLIYDASNLQTGVPSRFSGSGSGTDFTFTISSLQPEDIATYYCQQAEDQSPTFGPGTKVDIK | 7.9 fold | 0.26 µg/mL | 529 pM |
| hu8E2-TS-7 (antibody, V domains shown) VH: EVQLLESGGGLVQPGGSLRLSCAASGFTFSWYSMTWVRQAPGKGLEWVSSIVPSGGHTQYADSVKGRFTISRDNSKNTLYLQMNSLRAEDTAVYYCAKGPGWGSFDLWGRGTLVTVSS VL: DIQMTQSPSSLSASVGDRVTITCQASQDINNYLNWYQQKPGKAPKLLIYDASNLQTGVPSRFSGSGSGTDFTFTISSLQPEDIATYYCQQHENQSPTFGPGTKVDIK | 3.3 fold | 0.63 µg/mL | 108 pM |
